{"source": "paper PMC3625564", "origin": "cited, not measured here", "target": "Endocan (Homo sapiens) (UniProt Q9NQ30)", "sequence (Q9NQ30 20-184)": "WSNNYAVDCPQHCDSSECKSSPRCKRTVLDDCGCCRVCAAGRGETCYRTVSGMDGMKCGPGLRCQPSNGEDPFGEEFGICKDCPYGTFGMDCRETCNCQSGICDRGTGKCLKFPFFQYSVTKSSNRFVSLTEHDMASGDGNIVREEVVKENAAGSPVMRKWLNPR", "experiment": "biosensor"}
{"substance": "HGF (from UniProt P14210)", "values": [{"measurement": "Kd", "value": 4.5, "unit": "nM"}]}
